Results reported in IntAct's records for PubMed 29039417.

B1: BBSome complex member BBS1 (Homo sapiens), Q8NFJ9 (parent)
chain: MAAASSSDSDACGAESNEANSKWLDAHYDPMANIHTFSACLALADLHGDGEYKLVVGDLGPGGQQPRLKVLKGPLVMTESPLPALPAAAATFLMEQHEPRTPALALASGPCVYVYKNLRPYFKFSLPQLPPNPLEQDLWNQAKEDRIDPLTLKEMLESIRETAEEPLSIQSLRFLQLELSEMEAFVNQHKSNSIKRQTVITTMTTLKKNLADEDAVSCLVLGTENKELLVLDPEAFTILAKMSLPSVPVFLEVSGQFDVEFRLAAACRNGNIYILRRDSKHPKYCIELSAQPVGLIRVHKVLVVGSTQDSLHGFTHKGKKLWTVQMPAAILTMNLLEQHSRGLQAVMAGLANGEVRIYRDKALLNVIHTPDAVTSLCFGRYGREDNTLIMTTRGGGLIIKILKRTAVFVEGGSEVGPPPAQAMKLNVPRKTRLYVDQTLREREAGTAMHRAFQTDLYLLRLRAARAYLQALESSLSPLSTTAREPLKLHAVVQGLGPTFKLTLHLQNTSTTRPVLGLLVCFLYNEALYSLPRAFFKVPLLVPGLNYPLETFVESLSNKGISDIIKVLVLREGQSAPLLSAHVNMPGSEGLAAA
partner: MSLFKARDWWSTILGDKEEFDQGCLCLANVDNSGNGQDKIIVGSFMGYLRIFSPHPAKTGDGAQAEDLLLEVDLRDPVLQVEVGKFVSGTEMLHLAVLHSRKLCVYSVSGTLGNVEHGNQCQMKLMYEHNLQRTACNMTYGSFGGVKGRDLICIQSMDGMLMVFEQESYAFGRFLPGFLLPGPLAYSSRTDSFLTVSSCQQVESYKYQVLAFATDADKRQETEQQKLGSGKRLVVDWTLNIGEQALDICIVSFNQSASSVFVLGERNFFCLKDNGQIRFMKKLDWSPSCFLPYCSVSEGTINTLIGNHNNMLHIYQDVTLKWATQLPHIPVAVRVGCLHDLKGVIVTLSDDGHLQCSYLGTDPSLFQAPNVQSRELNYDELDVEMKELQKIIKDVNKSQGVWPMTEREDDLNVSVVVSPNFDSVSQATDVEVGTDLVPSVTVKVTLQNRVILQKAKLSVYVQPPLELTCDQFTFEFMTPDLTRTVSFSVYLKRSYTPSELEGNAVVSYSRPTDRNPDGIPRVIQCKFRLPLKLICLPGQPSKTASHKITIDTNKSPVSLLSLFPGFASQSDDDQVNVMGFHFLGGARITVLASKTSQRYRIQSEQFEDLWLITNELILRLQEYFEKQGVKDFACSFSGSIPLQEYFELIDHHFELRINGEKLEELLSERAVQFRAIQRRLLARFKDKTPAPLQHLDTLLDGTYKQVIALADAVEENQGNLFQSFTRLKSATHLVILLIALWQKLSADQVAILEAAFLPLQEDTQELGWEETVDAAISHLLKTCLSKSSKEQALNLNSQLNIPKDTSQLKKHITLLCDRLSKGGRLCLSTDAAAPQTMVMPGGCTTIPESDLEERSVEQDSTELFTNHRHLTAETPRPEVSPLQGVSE

Variants of: B1
Details: with pthb1_human BBS9, Q3SYG4

Variant	effect of a mutation on the interaction
MAAASSSDSDACGAESNEANSKWLDAHYDPMANIHTFSACLALADLHGDGEYKLVVGDLGPGGQQPRLKVLKGPLVMTESPLPALPAAAATFLMEQHEPRTPALALASGPCVYVYKNLRPYFKFSLPQLPPNPLEQDLWNQAKEDRIDPLTLKEMLESIRETAEEPLSIQSLRFLQLELSEMEAFVNQHKSNSIKRQTVITTMTTLKKNLADEDAVSCLVLGTENKELLVLDPEAFTILAKMSLPSVPVFLEVSGQFDVEFRLAAACRNGNIYILRRDSKHPKYCIELSAQPVGLIRVHKVLVVGSTQDSLHGFTHKGKKLWTVQMPAAILTMNLLEQHSRGLQAVMAGLANGEVRIYRDKALLNVIHTPDAVTSLCFGRYGREDNTLIMTTRGGGLIIKILKRTAVFVEGGSEVGPPPAQAMKLNVPRKTRLYVDQTLREREAGTAMHRAFQTDLYLLRLRAARAYLQALESSLSPLSTTAREPLKLHAVVQGLGPTFKLTLHLQKTSTTRPVLGLLVCFLYNEALYSLPRAFFKVPLLVPGLNYPLETFVESLSNKGISDIIKVLVLREGQSAPLLSAHVNMPGSEGLAAA [N507K]	with no effect
MAAASSSDSDACGAESNEANSKWLDAHYDPMANIHTFSACLALADLHGDGEYKLVVGDLGPGGQQPRLKVLKGPLVMTESPLPALPAAAATFLMEQHEPRTPALALASGPCVYVYKNLRPYFKFSLPQLPPNPLEQDLWNQAKEDRIDPLTLKEMLESIRETAEEPLSIQSLRFLQLELSEMEAFVNQHKSNSIKRQTVITTMTTLKKNLADEDAVSCLVLGTENKELLVLDPEAFTILAKMSLPSVPVFLEVSGQFDVEFRLAAACRNGNIYILRRDSKHPKYCIELSAQPVGLIRVHKVLVVGSTQDSLHGFTHKGKKLWTVQMPAAILTMNLLEQHSRGLQAVMAGLANGEVRIYRDKALLNVIHTPDAVTSLCFGRYGREDNTLIMTTRGGGLIIKILKRTAVFVEGGSEVGPPPAQAMKLNVPRKTRLYVDQTLREREAGTAMHRAFQTDLYLLRLRAARAYLQALESSLSPLSTTAREPLKLHAVVQGLGPTFKLTLHLQETSTTRPVLGLLVCFLYNEALYSLPRAFFKVPLLVPGLNYPLETFVESLSNKGISDIIKVLVLREGQSAPLLSAHVNMPGSEGLAAA [N507E]	disrupting interaction strength
MAAASSSDSDACGAESNEANSKWLDAHYDPMANIHTFSACLALADLHGDGEYKLVVGDLGPGGQQPRLKVLKGPLVMTESPLPALPAAAATFLMEQHEPRTPALALASGPCVYVYKNLRPYFKFSLPQLPPNPLEQDLWNQAKEDRIDPLTLKEMLESIRETAEEPLSIQSLRFLQLELSEMEAFVNQHKSNSIKRQTVITTMTTLKKNLADEDAVSCLVLGTENKELLVLDPEAFTILAKMSLPSVPVFLEVSGQFDVEFRLAAACRNGNIYILRRDSKHPKYCIELSAQPVGLIRVHKVLVVGSTQDSLHGFTHKGKKLWTVQMPAAILTMNLLEQHSRGLQAVMAGLANGEVRIYRDKALLNVIHTPDAVTSLCFGRYGREDNTLIMTTRGGGLIIKILKRTAVFVEGGSEVGPPPAQAMKLNVPRKTRLYVDQTLREREAGTAMHRAFQTDLYLLRLRAARAYLQALESSLSPLSTTAREPLKLHAVVQGLGPTFKLTLHLQATSTTRPVLGLLVCFLYNEALYSLPRAFFKVPLLVPGLNYPLETFVESLSNKGISDIIKVLVLREGQSAPLLSAHVNMPGSEGLAAA [N507A]	with no effect
MAAASSSDSDACGAESNEANSKWLDAHYDPMANIHTFSACLALADLHGDGEYKLVVGDLGPGGQQPRLKVLKGPLVMTESPLPALPAAAATFLMEQHEPRTPALALASGPCVYVYKNLRPYFKFSLPQLPPNPLEQDLWNQAKEDRIDPLTLKEMLESIRETAEEPLSIQSLRFLQLELSEMEAFVNQHKSNSIKRQTVITTMTTLKKNLADEDAVSCLVLGTENKELLVLDPEAFTILAKMSLPSVPVFLEVSGQFDVEFRLAAACRNGNIYILRRDSKHPKYCIELSAQPVGLIRVHKVLVVGSTQDSLHGFTHKGKKLWTVQMPAAILTMNLLEQHSRGLQAVMAGLANGEVRIYRDKALLNVIHTPDAVTSLCFGRYGREDNTLIMTTRGGGLIIKILKRTAVFVEGGSEVGPPPAQAMKLNVPRKTRLYVDQTLREREAGTAMHRAFQTDLYLLRLRAARAYLQALESSLSPLSTTAREPLKLHAVVQGLGPTFKLTLHLQNTATTRPVLGLLVCFLYNEALYSLPRAFFKVPLLVPGLNYPLETFVESLSNKGISDIIKVLVLREGQSAPLLSAHVNMPGSEGLAAA [S509A]	with no effect

Variants of: B1
Details: with pthb1_human BBS9, Q3SYG4
Remark: another data set of the same source

Variant	effect of a mutation on the interaction
MAAASSSDSDACGAESNEANSKWLDAHYDPMANIHTFSACLALADLHGDGEYKLVVGDLGPGGQQPRLKVLKGPLVMTESPLPALPAAAATFLMEQHEPRTPALALASGPCVYVYKNLRPYFKFSLPQLPPNPLEQDLWNQAKEDRIDPLTLKEMLESIRETAEEPLSIQSLRFLQLELSEMEAFVNQHKSNSIKRQTVITTMTTLKKNLADEDAVSCLVLGTENKELLVLDPEAFTILAKMSLPSVPVFLEVSGQFDVEFRLAAACRNGNIYILRRDSKHPKYCIELSAQPVGLIRVHKVLVVGSTQDSLHGFTHKGKKLWTVQMPAAILTMNLLEQHSRGLQAVMAGLANGEVRIYRDKALLNVIHTPDAVTSLCFGRYGREDNTLIMTTRGGGLIIKILKRTAVFVEGGSEVGPPPAQAMKLNVPRKTRLYVDQTLREREAGTAMHRAFQTDLYLLRLRAARAYLQALESSLSPLSTTAREPLKLHAVVQGLGPTFKLTLHLQETSTTRPVLGLLVCFLYNEALYSLPRAFFKVPLLVPGLNYPLETFVESLSNKGISDIIKVLVLREGQSAPLLSAHVNMPGSEGLAAA [N507E]	with no effect
